Assay in all cases: cell-based or functional assay
Experiment [1] addresses HIV-1 92RW020 envelope glycoprotein (Env) (HIV-1).
The target of experiment [2] is HIV-1 92UG037 envelope glycoprotein (Env) (HIV-1).
For experiment [3], the target named is HIV-1 93MW959 envelope glycoprotein (Env) on pseudovirus (HIV-1).
Experiment [4] addresses HIV-1 Env of isolate MGRM-AE-002 (HIV-1).
The target in experiment [5] is HIV-1 Env of isolate MGRM-D-020 (clade D) (HIV-1).
Experiment [6] has as its target HIV-1 Env of isolate MGRM-D-028 (clade D) (HIV-1).
Experiment [7] deals with HIV-1 Env of isolate MGRM-G-028 (clade G pseudovirus) (HIV-1).
Experiment [8] concerns the target HIV-1 Env of pseudovirus APV_17, clade B (HIV-1).
For experiment [9], the target named is HIV-1 Env of pseudovirus APV_6, clade B (HIV-1).
Experiment [10] concerns the target HIV-1 Env of pseudovirus CAAN.A2 (Acute), clade B (HIV-1).
In experiment [11] the target is HIV-1 Env of pseudovirus MGRM-Chronic-B-001, clade B (HIV-1).
Experiment [12] deals with HIV-1 Env of pseudovirus MGRM-Chronic-B-004, clade B (HIV-1).
Experiment [13] deals with HIV-1 Env of pseudovirus MGRM-Chronic-B-008, clade B (HIV-1).
The target of experiment [14] is HIV-1 IAVI-C18 envelope protein (Env) on pseudovirus (HIV-1).
For experiment [15], the target named is HIV-1 MGRM-C-004 Env (HIV-1).
Experiment [16] deals with HIV-1 MGRM-C-025 Env (HIV-1).
Experiment [17] addresses aMLV envelope protein on pseudovirus.
Experiment [18] addresses HIV-1 Env of isolate 92WR020 (HIV-1).
The target in experiment [19] is HIV-1 Env of isolate 93UG077 (HIV-1).
Experiment [20] addresses HIV-1 Env of isolate 93WR029 (HIV-1).
Experiment [21] addresses HIV-1 Env of isolate APV-13 (pseudovirus) (HIV-1 isolate APV-13, subtype B).
The target in experiment [22] is HIV-1 Env of isolate MGRM-AE-001 (CRF01_AE), on pseudovirus (HIV-1).
For experiment [23], the target named is HIV-1 Env of isolate MGRM-AG-009 (CRF_AG), on pseudovirus (HIV-1).
The target in experiment [24] is HIV-1 Env of isolate MGRM-C-023 (HIV-1).
The target of experiment [25] is HIV-1 Env of isolate MGRM-C-026 (HIV-1).
Experiment [26] concerns the target HIV-1 Env of isolate MGRM-D-008 (HIV-1).
The target of experiment [27] is HIV-1 Env of isolate MGRM-F1-004 (subtype F), on pseudovirus (HIV-1).
For experiment [28], the target named is HIV-1 Env of isolate MGRM-F1-010 (subtype F), on pseudovirus (HIV-1).
Experiment [29] has as its target HIV-1 Env of isolate MGRM-F1-012 (subtype F), on pseudovirus (HIV-1).
The target of experiment [30] is HIV-1 Env of isolate QH0692.42 (HIV-1).
Experiment [31] deals with HIV-1 JR-CSF Env D477A (HIV-1 (isolate JR-CSF)) (UniProt P20871).
The target of experiment [32] is HIV-1 JRCSF envelope glycoprotein (Env) on pseudovirus (HIV-1) (UniProt P20871).

A value given as a limit tells only on which side of the number the result lay.

Results on 10 substances are retold here after patent US20200024330A1.

Chain of 5345_I01 (PGT-137) (antibody) (VH): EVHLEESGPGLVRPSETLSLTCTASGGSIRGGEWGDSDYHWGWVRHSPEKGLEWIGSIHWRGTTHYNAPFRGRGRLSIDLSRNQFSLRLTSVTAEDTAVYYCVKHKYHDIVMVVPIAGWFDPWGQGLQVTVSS
Chain of 5345_I01 (PGT-137) (antibody) (VL): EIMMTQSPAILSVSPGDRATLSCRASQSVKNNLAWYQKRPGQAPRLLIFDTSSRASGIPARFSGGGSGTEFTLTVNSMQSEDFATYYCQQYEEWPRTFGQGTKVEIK
Chain of 1443_C16 (PG16) (TCN-116) (antibody) (VH): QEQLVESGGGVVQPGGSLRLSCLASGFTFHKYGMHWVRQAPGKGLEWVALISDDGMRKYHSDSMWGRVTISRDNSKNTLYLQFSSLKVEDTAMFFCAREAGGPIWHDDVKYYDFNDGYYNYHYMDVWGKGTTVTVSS
Chain of 1443_C16 (PG16) (TCN-116) (antibody) (VL): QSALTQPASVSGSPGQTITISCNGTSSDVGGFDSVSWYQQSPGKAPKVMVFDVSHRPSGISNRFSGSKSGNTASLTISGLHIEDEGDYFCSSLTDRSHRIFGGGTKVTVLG
Chain of 5329_C19 (PGT-136) (antibody) (VH): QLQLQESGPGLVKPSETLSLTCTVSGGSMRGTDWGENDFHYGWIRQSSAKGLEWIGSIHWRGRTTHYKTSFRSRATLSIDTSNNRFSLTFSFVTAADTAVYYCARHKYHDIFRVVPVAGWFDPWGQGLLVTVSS
Chain of 5329_C19 (PGT-136) (antibody) (VL): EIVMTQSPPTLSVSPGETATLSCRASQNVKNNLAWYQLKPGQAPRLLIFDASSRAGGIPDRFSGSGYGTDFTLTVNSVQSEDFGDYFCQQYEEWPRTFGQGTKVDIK

Usually IC50 stands for the concentration that inhibits the measured activity by half. A low value points to inhibition by little substance. For 2F5 (antibody), the IC50 (µg/ml), pseudovirus neutralization is 3.36 µg/mL in experiment [1]; 3.24 µg/mL in [2]; over 50 µg/mL in experiment [3]; 0.31 µg/mL in experiment [4]; over 50 µg/mL in [5]; over 50 µg/mL in experiment [6]. Besides, the IC50 (µg/ml), pseudovirus neutralization is 2.24 µg/mL in experiment [7]; 4.61 µg/mL in [8]; 0.25 µg/mL in [9]; 23.1 µg/mL in experiment [10]; 0.55 µg/mL in experiment [11]; 2.41 µg/mL in [12]. In addition, the IC50 (µg/ml), pseudovirus neutralization in experiment [13] was over 50 µg/mL. For the same substance, the neutralization IC50 in [14] and in experiment [17] was over 50 µg/mL each time. Besides, the 50% inhibitory concentration (IC50) in experiment [15] and in [16] was over 50 µg/mL throughout.
On to 2G12 (antibody), for which the IC50 (µg/ml), pseudovirus neutralization in [1] is 0.48 µg/mL; in experiment [2], 45.2 µg/mL; in experiment [3], over 50 µg/mL; in experiment [4], over 50 µg/mL; in experiment [5], over 50 µg/mL; in experiment [6], over 50 µg/mL. The IC50 (µg/ml), pseudovirus neutralization in experiment [7] was 28.2 µg/mL; in [8] it was over 50 µg/mL; in experiment [9], 1.9 µg/mL; in experiment [10] it was over 50 µg/mL; in experiment [11], 0.08 µg/mL; in experiment [12] it was 8.65 µg/mL. Besides, the IC50 (µg/ml), pseudovirus neutralization in experiment [13] stood at 0.55 µg/mL. The neutralization IC50 in experiment [14] and in experiment [17] was over 50 µg/mL in each case. Moreover, the IC50 in [15] and in [16] was over 50 µg/mL throughout.
With 4E10 (antibody), the IC50 (µg/ml), pseudovirus neutralization in [1] was 4.54 µg/mL; in experiment [2], 8.84 µg/mL; in [3], 4.55 µg/mL; in experiment [4], 0.55 µg/mL; in experiment [5] it was over 50 µg/mL; in [6] it was 1.28 µg/mL. Besides, the IC50 (µg/ml), pseudovirus neutralization in [7] worked out at 6.32 µg/mL; in experiment [8], 10.5 µg/mL; in experiment [9], 1.1 µg/mL; in experiment [10], 17.9 µg/mL; in experiment [11], 1.46 µg/mL; in experiment [12] it was 3.7 µg/mL. The same substance displayed an IC50 (µg/ml), pseudovirus neutralization in experiment [13] of 16.7 µg/mL. The neutralization IC50 in [14] and in experiment [17] was over 50 µg/mL throughout. The IC50 was found to be 24.2 µg/mL in [15] and 5.58 µg/mL in experiment [16].
As for 1443_C16 (PG16) (TCN-116) (antibody), the IC50 (µg/ml), pseudovirus neutralization is 0.28 µg/mL in experiment [1]; 0.01 µg/mL in experiment [2]; 0.007 µg/mL in experiment [3]; 0.01 µg/mL in experiment [4]; 16.3 µg/mL in experiment [5]; over 50 µg/mL in [6]. Besides, the IC50 (µg/ml), pseudovirus neutralization in experiment [7] is 3.09 µg/mL; in experiment [8], 24.8 µg/mL; in experiment [9] it was 0.29 µg/mL; in experiment [10], 8.83 µg/mL; in experiment [11], over 50 µg/mL; in [12] it was 0.01 µg/mL. Besides, in experiment [13], the IC50 (µg/ml), pseudovirus neutralization was 0.73 µg/mL. In addition, the neutralization IC50 in [14] was 0.0067 µg/mL; in experiment [17] it was over 50 µg/mL. The results for the IC50 in experiment [15] and in experiment [16] were 5.09 µg/mL and 0.04 µg/mL, respectively.
Regarding 5114_A19 (PGT-128) (antibody), the neutralization IC50 in experiment [18] is 0.005 µg/mL; in experiment [19], 0.014 µg/mL; in experiment [20] it was over 50 µg/mL. In addition, the IC50 (µg/mL) neutralization in [21] came to 0.008 µg/mL. In addition, the IC50, single-round pseudovirus neutralization in experiment [22] came out at 0.069 µg/mL; in experiment [23] it was 0.021 µg/mL. Besides, the IC50 in [24] is 0.026 µg/mL; in experiment [25], 0.007 µg/mL; in [26], 0.033 µg/mL; in experiment [30], 0.029 µg/mL. In addition, the IC50, pseudovirus neutralization in experiment [27] stood at 0.027 µg/mL; in [28], 16.7 µg/mL; in experiment [29] it was 0.007 µg/mL. For the same substance, in experiment [31], the Fold IC50 increase relative to wild-type is 0.7 fold.
Turning to 5136_H01 (PGT-131) (antibody), the neutralization IC50 is 0.168 µg/mL in experiment [18], over 50 µg/mL in experiment [19] and over 50 µg/mL in experiment [20]. This substance came in with an IC50 (µg/mL) neutralization in experiment [21] of 0.189 µg/mL. Further, the IC50, single-round pseudovirus neutralization in experiment [22] was 4.8 µg/mL; in [23], over 50 µg/mL. Moreover, the IC50 in [24] was 0.143 µg/mL; in experiment [25], 1.67 µg/mL; in [26] it was over 50 µg/mL; in experiment [30] it was over 50 µg/mL. Also, the IC50, pseudovirus neutralization in [27] is 0.114 µg/mL; in experiment [28], over 50 µg/mL; in experiment [29], over 50 µg/mL. The same substance had a Fold IC50 increase relative to wild-type in experiment [31] of 1 fold.
In the case of 5147_N06 (PGT-130) (antibody), the neutralization IC50 in [18] stood at 0.039 µg/mL; in experiment [19], 21.4 µg/mL; in experiment [20], 34.3 µg/mL. The substance also showed an IC50 (µg/mL) neutralization in experiment [21] of 0.052 µg/mL. For the same substance, the IC50, single-round pseudovirus neutralization worked out at 1 µg/mL in [22] and 9.46 µg/mL in experiment [23]. The IC50 in [24] is 0.151 µg/mL; in experiment [25], 0.036 µg/mL; in experiment [26], over 50 µg/mL; in experiment [30], over 50 µg/mL. In addition, the figures for the IC50, pseudovirus neutralization in [27], in [28] and in experiment [29] were 0.023 µg/mL, over 50 µg/mL and over 50 µg/mL, respectively. For the same substance, the Fold IC50 increase relative to wild-type in [31] was 1.1 fold. This substance also displayed an IC50 (ug/ml), neutralizing activity in experiment [32] of 0.0089 µg/mL.
As for 5329_C19 (PGT-136) (antibody), the neutralization IC50 was 2.33 µg/mL in [18], over 50 µg/mL in experiment [19] and over 50 µg/mL in experiment [20]. For the same substance, the IC50 (µg/mL) neutralization in [21] is over 50 µg/mL. Further, the IC50, single-round pseudovirus neutralization in experiment [22] and in [23] was over 50 µg/mL throughout. Further, the 50% inhibitory concentration (IC50) in experiment [24] is 3.2 µg/mL; in experiment [25], 0.006 µg/mL; in [26], over 50 µg/mL; in experiment [30] it was over 50 µg/mL. Moreover, the IC50, pseudovirus neutralization in experiment [27], in [28] and in experiment [29] was over 50 µg/mL each time.
As for 5343_B08 (PGT-135) (antibody), the neutralization IC50 is 0.067 µg/mL in experiment [18], over 50 µg/mL in [19] and over 50 µg/mL in [20]. Besides, in experiment [21], the IC50 (µg/mL) neutralization stood at 0.716 µg/mL. Also, the IC50, single-round pseudovirus neutralization in experiment [22] and in experiment [23] was over 50 µg/mL in each case. Moreover, the IC50 was 0.051 µg/mL in [24], 0.004 µg/mL in experiment [25], over 50 µg/mL in [26] and over 50 µg/mL in experiment [30]. The figures for the IC50, pseudovirus neutralization in experiment [27], in [28] and in experiment [29] were 0.211 µg/mL, over 50 µg/mL and 0.01 µg/mL, respectively. The same substance showed a Fold IC50 increase relative to wild-type in [31] of 1.5 fold.
With 5345_I01 (PGT-137) (antibody), the neutralization IC50 in experiment [18] was 0.005 µg/mL; in experiment [19] it was over 50 µg/mL; in experiment [20], over 50 µg/mL. The IC50 (µg/mL) neutralization in experiment [21] was over 50 µg/mL. Also, the IC50, single-round pseudovirus neutralization in experiment [22] and in [23] was over 50 µg/mL each time. The IC50 in experiment [24] is 0.23 µg/mL; in [25], 0.011 µg/mL; in experiment [26] it was over 50 µg/mL; in experiment [30] it was over 50 µg/mL. The IC50, pseudovirus neutralization is 40.3 µg/mL in experiment [27], over 50 µg/mL in [28] and over 50 µg/mL in experiment [29].
